# Results taken from US20110177071A1 (PERSEID THERAPEUTICS, published 2011).
# Numbering of substitutions follows the chain as printed. In names and notes the source's numbering stands.
# T1: human CD80-murine Ig fusion protein (human)
# T1 construct: Bought (Ancell #510-820); also called hCD80-mIg; human CD80-murine IgG
# T1 chain: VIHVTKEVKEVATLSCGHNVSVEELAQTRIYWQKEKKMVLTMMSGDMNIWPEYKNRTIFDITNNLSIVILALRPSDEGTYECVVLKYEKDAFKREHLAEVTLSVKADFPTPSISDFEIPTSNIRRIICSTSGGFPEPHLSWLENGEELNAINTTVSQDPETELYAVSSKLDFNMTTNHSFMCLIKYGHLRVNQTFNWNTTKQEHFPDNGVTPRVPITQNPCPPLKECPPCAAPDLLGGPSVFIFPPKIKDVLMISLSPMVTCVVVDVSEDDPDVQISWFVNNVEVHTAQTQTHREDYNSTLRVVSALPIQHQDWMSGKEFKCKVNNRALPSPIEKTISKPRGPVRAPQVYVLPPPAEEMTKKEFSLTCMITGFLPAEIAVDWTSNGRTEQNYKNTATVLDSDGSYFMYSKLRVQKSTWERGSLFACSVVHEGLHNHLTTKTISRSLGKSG
# T2: human CD86-murine Ig fusion protein (human)
# T2 construct: Bought (Ancell #509-820); also called hCD86-mIg
# T2 chain: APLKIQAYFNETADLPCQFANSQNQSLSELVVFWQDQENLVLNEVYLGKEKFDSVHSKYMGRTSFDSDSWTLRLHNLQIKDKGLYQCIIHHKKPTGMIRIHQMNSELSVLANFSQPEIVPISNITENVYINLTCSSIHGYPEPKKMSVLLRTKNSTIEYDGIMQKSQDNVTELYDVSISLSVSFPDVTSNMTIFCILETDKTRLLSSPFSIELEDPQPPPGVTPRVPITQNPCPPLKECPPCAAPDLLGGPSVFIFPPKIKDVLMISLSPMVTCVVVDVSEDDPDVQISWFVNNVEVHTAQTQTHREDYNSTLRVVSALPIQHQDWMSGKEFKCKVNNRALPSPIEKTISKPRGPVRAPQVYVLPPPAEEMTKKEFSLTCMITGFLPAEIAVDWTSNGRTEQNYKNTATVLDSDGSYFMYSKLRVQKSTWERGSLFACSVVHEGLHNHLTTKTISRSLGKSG
# B1: D1T-IgG2 (Fc fusion)
# chain: MHVAQPAVVLASSRGIASFVCEYESPHKANEIRVTVLRQANSQVTEVCAMTYMKGDELTFLDDPFCTGTFSGNQVNLTIQGLRAADTGLYICKVELMYPPPYYLGIGNGTQIYVIDPEPCPDSDERKCCVECPPCPAPPVAGPSVFLFPPKPKDTLMISRTPEVTCVVVDVSHEDPEVQFNWYVDGVEVHNAKTKPREEQFNSTFRVVSVLTVVHQDWLNGKEYKCKVSNKGLPAPIEKTISKTKGQPREPQVYTLPPSREEMTKNQVSLTCLVKGFYPSDIAVEWESNGQPENNYKTTPPMLDSDGSFFLYSKLTVDKSRWQQGNVFSCSVMHEALHNHYTQKSLSLSPG
# B2: D3-7-IgG2 (Fc fusion)
# chain: B1 chain with H27G, N41G, D56N, F65S, I106F
# notes: also called D3-07
# B3: D3-19-IgG2 (Fc fusion)
# chain: B1 chain with H27G, N41D, D56N, F65S
# B4: D3-33-IgG2 (Fc fusion)
# chain: B1 chain with H27G, Q39K, N41D, G55E, F65S
# B5: D3-1-IgG2 (Fc fusion)
# chain: B1 chain with E24A, H27G, N41G, F65S, I106F
# B6: D3-5-IgG2 (Fc fusion)
# chain: B1 chain with H27G, N41G, M50A, F65S, I106F
# B7: D3-30-IgG2 (Fc fusion)
# chain: B1 chain with H27G, N41D, F65I, A85M
# B8: D3-16-IgG2 (Fc fusion)
# chain: B1 chain with H27G, N41G, F65S, A85M
# B9: D3-24-IgG2 (Fc fusion)
# chain: B1 chain with H27G, N41G, D56N, F65S, A85M, I106F
# B10: D3-25-IgG2 (Fc fusion)
# chain: B1 chain with H27G, N41G, D56N, F65S
# B11: D3-26-IgG2 (Fc fusion)
# chain: B1 chain with E24A, H27G, N41D, D56N, F65S, A85M
# B12: D3-32-IgG2 (Fc fusion)
# chain: B1 chain with H27G, Q39K, N41D, F65S
# B13: D3-21-IgG2 (Fc fusion)
# chain: B1 chain with H27G, N41D, D56N, F65S, A85M, I106F
# B14: D3-23-IgG2 (Fc fusion)
# chain: B1 chain with H27G, N41D, D56N, F65S, I106F
# B15: D3-22-IgG2 (Fc fusion)
# chain: B1 chain with H27G, N41G, D56N, F65S, A85M
# B16: D3-9-IgG2 (Fc fusion)
# chain: B1 chain with H27G, N41G, F65I, I106F
# B17: D3-8-IgG2 (Fc fusion)
# chain: B1 chain with H27G, N41G, P64S, F65S, I106F
# B18: D3-28-IgG2 (Fc fusion)
# chain: B1 chain with H27G, N41D, D56N, F65I, A85M
# Biological target: T1, human CD80-murine Ig fusion protein
# Test: SPR Biacore, hCD80-mIg captured
# Method: (§1) All Biacore™ analyses were performed on a Biacore™ 2000 system (GE Healthcare) at room temperature (RT, 25° C.). HBS-EP buffer (10 mM HEPES (pH 7.4), 150 mM NaCl, 3 mM EDTA, 0.005% surfactant P20) was used as the flow buffer for all experiments.
# (§2) Rabbit anti-mouse IgG antibody (GE Healthcare, #BR-1005-14) was immobilized on CM5 sensor chips (GE Healthcare, #BR-1000-14) according to the manufacturer's protocol. Antibody was diluted to 30 μg/ml in immobilization buffer (10 mM sodium acetate, pH 5.0 (BR-1003-51)). At a flow rate of 5 μl/minute, sensor chip CM5 was activated with a 35 μl injection of a mixture of 1-Ethyl-3-[3-dimethylaminopropyl]carbodiimide hydrochloride (EDC) and N-hydroxysuccinimide (NHS) (made by mixing equal volumes of 11.5 mg/ml EDC and 75 mg/ml NHS) (GE Healthcare, #BR-1000-50), followed by a 35 μl injection of undiluted antibody. Un-reacted sites were quenched with 35 μl of 1M ethanolamine-HCL, pH 8.5 (GE Healthcare, #BR-1000-50). […] CTLA-4 ligands human CD80-murine Ig (hCD80-mIg) (Ancell, #510-820) or human CD86-murine Ig (hCD86-mIg) (Ancell, #509-820) were bound to antibody-coated sensor chips by injection of 10 μl or 16 μl, respectively, ligand solution (2 μg/ml protein in HBS-EP buffer [10 mM HEPES pH 7.4, 150 mM NaCl, 3 mM EDTA, 0.005% (v/v) surfactant P-20, GE Healthcare, #BR-1001-88]) at a flow rate of 10 μl/min.
Binding Avidity (Relative to Orencia) [fold],Kd [nM],Binder
> 2,< 0.439,B1
,0.439 to 1.75,B2
,0.439 to 1.75,B3
,0.439 to 1.75,B4
,0.439 to 1.75,B5
,0.439 to 1.75,B6
,0.439 to 1.75,B7
,0.439 to 1.75,B8
,0.439 to 1.75,B9
,0.439 to 1.75,B10
,0.439 to 1.75,B11
,0.439 to 1.75,B12
,0.439 to 1.75,B13
,0.439 to 1.75,B14
,0.439 to 1.75,B15
,0.439 to 1.75,B16
,0.439 to 1.75,B17
,0.439 to 1.75,B18

# Biological target: T2, human CD86-murine Ig fusion protein
# Test: SPR Biacore, hCD86-mIg captured
# Method: as §1, §2
Kd [nM],Binding Avidity (Relative to Orencia) [fold],Binder
0.262 to 0.523,,B1
< 0.131,> 40,B2
0.131 to 0.262,,B3
< 0.131,> 40,B4
< 0.131,> 40,B5
0.131 to 0.262,,B6
0.131 to 0.262,,B7
< 0.131,> 40,B8
0.131 to 0.262,,B9
0.131 to 0.262,,B10
0.131 to 0.262,,B11
< 0.131,> 40,B12
0.131 to 0.262,,B13
0.131 to 0.262,,B14
0.131 to 0.262,,B15
< 0.131,> 40,B16
0.131 to 0.262,,B17
0.262 to 0.523,,B18
